Test results published in PMC2386288, “Kinetics and Ligand-Binding Preferences of Mycobacterium tuberculosis Thymidylate Synthases, ThyA and ThyX” (PLoS ONE, 2008).
Like-named read-outs stand apart in the source and are kept apart here.

What was measured:
[1] = tested on: O=c1ccn([C@H]2C[C@H](O)[C@@H](COP(=O)(O)O)O2)c(=O)[nH]1; experiment: purified protein
[2] = tested on: Nc1nc2c(c(=O)[nH]1)N1CN(c3ccc(C(=O)N[C@@H](CCC(=O)O)C(=O)O)cc3)CC1CN2; experiment: purified protein
[3] = biological target: T1, ThyA (Mycobacterium tuberculosis, UniProt P9WFR9); experiment: biochemical
T1 construct: N-terminal His-Tag

[4] = biological target: T2, ThyX (Mycobacterium tuberculosis, UniProt P9WG57); experiment: biochemical
T2 construct: C-terminal His-Tag

[5] = tested on: NC(=O)C1=CN([C@@H]2O[C@H](COP(=O)(O)OP(=O)(O)OC[C@H]3O[C@@H](n4cnc5c(N)ncnc54)[C@H](OP(=O)(O)O)[C@@H]3O)[C@@H](O)[C@H]2O)C=CC1; experiment: purified protein; settings: FAD
[6] = biological target: the molecule itself; experiment: SEC

T1 sequence (P9WFR9 2-266): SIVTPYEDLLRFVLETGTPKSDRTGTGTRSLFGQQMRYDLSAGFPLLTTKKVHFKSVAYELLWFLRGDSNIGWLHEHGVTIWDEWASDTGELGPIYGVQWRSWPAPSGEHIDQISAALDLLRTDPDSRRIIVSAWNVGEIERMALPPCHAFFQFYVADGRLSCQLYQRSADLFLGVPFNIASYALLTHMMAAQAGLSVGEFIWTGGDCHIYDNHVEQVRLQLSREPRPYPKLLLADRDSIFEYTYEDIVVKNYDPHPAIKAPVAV

ThyA (Mycobacterium tuberculosis H37Rv)
Km ([1]; mTHF): 4 ± 0.7 µM | Km [2]: 70 ± 30 µM

O=c1[nH]c(=O)n([C@H]2C[C@H](O)[C@@H](COP(=O)(O)O)O2)cc1F [FdUMP, 5-Fluoro-2′-deoxyuridine 5′-monophosphate]
Ki [3]: 2 ± 0.2 nM | Ki [4]: 100 ± 10 nM

ThyX (Mycobacterium tuberculosis H37Rv)
Km [5]: 47 ± 10 µM | Km ([1]; FAD): 3 ± 0.7 µM | Km ([2]; FAD): 4.0 ± 1 µM

B1: Histidine-tagged M. tuberculosis ThyX (flavin-dependent thymidylate synthase) (enzyme)
chain: MAETAPLRVQLIAKTDFLAPPDVPWTTDADGGPALVEFAGRACYQSWSKPNPKTATNAGYLRHIIDVGHFSVLEHASVSFYITGISRSCTHELIRHRHFSYSQLSQRYVPEKDSRVVVPPGMEDDADLRHILTEAADAARATYSELLAKLEAKFADQPNAILRRKQARQAARAVLPNATETRIVVTGNYRAWRHFIAMRASEHADVEIRRLAIECLRQLAAVAPAVFADFEVTTLADGTEVATSPLATEA
notes: also called FDTS
stoichiometry N [6]: 4
